Reference: publication doi:10.1101/2020.06.12.148387 (bioRxiv, 2020)

Molecular target: T1, SARS-CoV-2 Spike ectodomain (pre-fusion, with proline mutations) (SARS-CoV-2, early reference strain …, residues 986 and 987 mutated to a Pro-Pro sequence)
T1 construct: also called pre-fusion Spike; trimeric Spike
Test: cryo-EM structure
Conditions: both partners purified

B1: EY6A Fab (digested from IgG with papain) (Fab, V domains shown)
VH: EVQLVESGGGVVQPGRSLRLSCAASAFTFSSYDMHWVRQAPGKGLEWVAVISYDGSNKYYADSVKGRFTISRDNSKNTLYLQMNSLRAEDTAVYYCAKDGGKLWVYYFDYWGQGTLVTVSS
VL: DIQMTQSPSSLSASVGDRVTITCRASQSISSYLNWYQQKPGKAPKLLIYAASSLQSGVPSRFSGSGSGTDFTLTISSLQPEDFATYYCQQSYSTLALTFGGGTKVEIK
notes: also called Fab-EY6A; source: digested from ExpiCHO-made IgG with papain (Pierce Fab Preparation Kit)
With B1 as the binder, how does the “stoichiometry N” value read?
The value was 3 Fabs per Spike trimer.
